# Molecular target: T1, il33_human IL33 (UniProt O95760)
# T1 sequence: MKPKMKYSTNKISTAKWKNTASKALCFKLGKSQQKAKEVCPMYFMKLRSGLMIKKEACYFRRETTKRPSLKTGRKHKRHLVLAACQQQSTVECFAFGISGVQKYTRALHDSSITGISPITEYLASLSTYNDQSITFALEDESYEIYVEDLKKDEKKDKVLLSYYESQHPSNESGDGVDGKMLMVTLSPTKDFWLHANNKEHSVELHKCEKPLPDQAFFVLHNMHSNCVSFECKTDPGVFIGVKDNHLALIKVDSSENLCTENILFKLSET
row,effect of a mutation on the interaction,Substance
1,decreasing interaction,Histone H2A type 1 (Homo sapiens) (from UniProt P0C0S8) E92R
2,decreasing interaction,Histone H2A type 1 (Homo sapiens) (from UniProt P0C0S8) E93L

# — IntAct's records for PubMed 18688256
